# Experimental data: paper PMC9239997, “Structural basis for mitoguardin-2 mediated lipid transport at ER-mitochondrial membrane contact sites” (Nature Communications, 2022)
# B1: mouse MIGA2 residues 275-570, wild type [mouse (Mus musculus)] / MSP domain of mouse VAPB (residues 1-125) fused to GST [mouse (Mus musculus)] (parent complex)
# chain 1: GSLRLRADDEDSLTSEDSFFSATEIFESLQIGEYPLPLSRPAAAYEEALQLVKEGRVPCRTLRTELLGCYSDQDFLAKLHCVRQAFEGLLEERSNQIFFGEVGRQMVTGLMTKAEKSPKGFLESYEEMLSYALRPETWATTRLELEGRGVACMSFFDIVLDFILMDAFEDLENPPSSVLAVLRNRWLSDSFKETALATACWSVLKAKRRLLMVPDGFISHFYSVSEHVSPVLAFGFLGPKPQLSEVCAFFKHQIVQYLRDMFDLDNVRYTSVPALAEDILQLSRRRSEILLGYLGA
# chain 2: MAKVEQVLSLEPQHELKFRGPFTDVVTTNLKLGNPTDRNVCFKVKTTVPRRYCVRPNSGVIDAGASLNVSVMLQPFDYDPNEKSKHKFMVQSMFAPPDTSDMEAVWKEAKPEDLMDSKLRCVFEL
# Variants of: B1
# Assay: GST pull-down; parent: 0.01; read off a plot
row,screen value,Variant
1,~0.4,chain 1 S21D
2,~1,"chain 1 S18E, chain 1 S21D"
3,~0.01,chain 1 S18E
